Test results published in patent publication US20250051449A1 (SURFACE ONCOLOGY, published 2025).

T1: human CD112R expressed on Jurkat cells (human, UniProt Q6DKI7 1-326)
T1 construct: whole, on cells; Used for both Jurkat-CD112R OE cells and wild type Jurkat cells; which cells is said under assay; also called PVRIG; Jurkat-CD112R OE
T1 sequence (looked up): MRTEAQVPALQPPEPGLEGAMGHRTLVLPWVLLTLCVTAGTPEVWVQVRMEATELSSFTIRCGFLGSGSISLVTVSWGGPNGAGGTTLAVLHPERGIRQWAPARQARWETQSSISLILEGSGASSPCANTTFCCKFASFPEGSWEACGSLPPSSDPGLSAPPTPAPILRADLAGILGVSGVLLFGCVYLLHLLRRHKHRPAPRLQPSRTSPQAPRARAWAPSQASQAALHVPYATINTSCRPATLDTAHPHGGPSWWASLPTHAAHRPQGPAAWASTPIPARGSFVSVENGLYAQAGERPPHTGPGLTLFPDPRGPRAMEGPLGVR


Tests used:
[1] = biological target: T2, mouse CD112R-hIgG4 fusion protein (mouse; human); assay: blocking ELISA: coated mouse CD112, antibody plus mouse CD112R-hIgG4 (2 ug/mL)
T2 construct: also called soluble mouse CD112R; soluble murine CD112R
Procedure: The ability of species cross reactive anti-CD112R antibodies to block mouse CD112R binding to mouse CD112 was evaluated by ELISA. Briefly. 96 well Nunc Maxisorp plates were coated with 1 μg/mL of mouse CD112 (Sino Biological. Cat #50318-M08H) in PBS overnight at 4° C. […] After blocking, plates were washed 6× with PBST. Next. 50 μL of anti-CD112R antibodies or isotype control (Biolegend. Cat #403502) in PBS+1% BSA were added at a final starting concentration of 40 μg/mL, with 2-fold serial dilutions. 50 μL of a mouse CD112R-hIgG4 fusion protein was also added to each well at a final concentration of 2 μg/mL. Plates were incubated at room temperature for 1.5 hours. Next plates were washed 6× with PBST and then incubated with anti-IgG4 HRP (Thermo Fisher, Cat #MA1-33437) in 100 μL for 1 hour at room temperature. Plates were then washed 6× with PBST and developed with TMB substrate (Life Technologies. Cat #002023). The reaction was stopped with an equal volume of stop solution (Life Technologies. Cat #SS04). Absorbance at 450 nm (O.D. 450) was measured on a SpectraMax plate reader.
Results are depicted in FIG. 19 and Table 11. […] Percent inhibition was calculated as [100−((test sample O.D. 450/Max O.D. 450)*100%)] Max O.D. 450 was defined as absorbance at 450 nm in the absence of antibody.

[2] = biological target: T1, human CD112R expressed on Jurkat cells; assay: flow cytometry, Jurkat cells over-expressing human CD112R, 0.63 ug/mL antibody
Procedure: (§1) The ability of anti-CD112R antibodies to bind to CD112R expressed on cells was evaluated. 1×10⁵ Jurkat cells (acute T cell leukemia cell line, ATCC #TIB-152) that were either wild type or engineered to over-express human CD112R (Jurkat-CD112R OE) were added to each well of a 96-well V bottom plate and stained with either anti-CD112R antibodies or an IgG1 isotype control (0.63 μg/mL) for 1 hour at 4° C. Cells were washed twice with PBS+2% FCS and resuspended with Alexa Fluor® 647 anti-human IgG Fc antibody (Biolegend, Cat #409320) diluted 1:100 in PBS+2% FCS and incubated at 4° C. for 30 minutes. Cells were subsequently washed twice and resuspended in PBS+2% FCS. Cellular data was acquired using a LSRFortessa X-20 (BD Biosciences) and analyzed with FlowJo software (Tree Star).
Results are depicted in FIG. 1. Quantitation of antibody binding to Jurkat-CD112R OE cells was assessed by the geometric mean fluorescent intensity (gMFI) of the Alexa Fluor® 647 signal.

[3] = biological target: T3, mouse CD112R overexpressed on 293T cells (mouse); assay: flow cytometry, 293T cells overexpressing mouse CD112R
T3 construct: whole, on cells; also called 293T.mCD112R; 293T-mouse CD112R
Procedure: The ability of anti-CD112R antibodies to bind to mouse CD112R was evaluated on cells overexpressing mouse CD112R. 0.8×10⁵ 293T cells (ATCC CRL-3216) that were engineered to overexpress mouse CD112R (293T.mCD112R) were added to each well of a 96-well V bottom plate and stained with either anti-CD112R antibodies or an IgG1 isotype control at a starting concentration of 10 μg/mL, with 3-fold serial dilutions for 30 minutes at 4° C. Cells were washed twice with PBS+2% FCS and resuspended with Alexa Fluor® 647 anti-human IgG Fc antibody (Biolegend, Cat #409320) diluted 1:100 in PBS+2% FCS and incubated at 4° C. for 20 minutes. Cells were subsequently washed twice and resuspended in PBS+2% FCS. Cellular data was acquired using a LSRFortessa X-20 (BD Biosciences) and analyzed with FlowJo software (Tree Star).
Results are depicted in FIG. 17 and Table 11. Quantitation of antibody binding to 293T.mCD112R cells was assessed by the geometric mean fluorescent intensity (gMFI) of the Alexa Fluor® 647 signal.

[4] = biological target: T2, mouse CD112R-hIgG4 fusion protein; assay: ELISA: coated antibody, titrated mouse CD112R-hIgG4, anti-IgG4 HRP
Procedure: The ability of anti-CD112R antibodies to bind to soluble mouse CD112R was evaluated by ELISA. Briefly. 96 well Nunc Maxisorp plates were coated with 1 μg/mL of anti-CD112R antibodies or isotype control (Biolegend. Cat #403502) in PBS overnight at 4° C. […] After blocking, plates were washed 6× with PBST. Next. 100 μL of a mouse CD112R-hIgG4 fusion protein in PBS+1% BSA was added at a final starting concentration of 10 μg/mL, with 4-fold serial dilutions. Plates were incubated at room temperature for 1.5 hours. Next plates were washed 6× with PBST and then incubated with anti-IgG4 HRP (Thermo Fisher, Cat #MA1-33437) in 100 μL for 1 hour at room temperature. Plates were then washed 6× with PBST and developed with TMB substrate (Life Technologies. Cat #002023). The reaction was stopped with an equal volume of stop solution (Life Technologies. Cat #SS04). Absorbance at 450 nm (O.D. 450) was measured on a SpectraMax plate reader.

[5] = biological target: T1, human CD112R expressed on Jurkat cells; assay: flow cytometry, wild type Jurkat cells, 0.63 ug/mL antibody
Procedure: as §1

Row | mouse CD112/CD112R blocking ELISA max inhibition (%) [1] [%] | gMFI (fold increase over isotype) [2] | gMFI (fold increase over isotype) [3] | EC50 [4] [µg/mL] | gMFI (fold increase over isotype) [5] | Binder
1 | 41.6 | 31 fold increase over isotype | 76.3 fold increase over isotype | 0.0251 | 3.5 fold increase over isotype | Antibody 36 (antibody, V domains shown, Purified as IgG; compared with an IgG1 isotype control and detected with anti-human IgG Fc; also called antibody clone number 36; clone 36) VH: QVQLVQSGAEVKKPGSSVKVSCKASGGTFATYAISWVRQAPGQGLEWMGGIFPLSGTANYAQKFQGRVTITADESTSTAYMELSSLRSEDTAVYYCARDTGRGYTRHFWFDPWGQGTLVTVSS VL: DIQMTQSPSSLSASVGDRVTITCRASQSISSYLNWYQQKPGKAPKLLIYAASSLQSGVPSRFSGSGSGTDFTLTISSLQPEDFATYYCQQSDILYTFGGGTKVEIK
2 | 24.2 | 32.1 fold increase over isotype | 55.6 fold increase over isotype | 0.0215 | 3.3 fold increase over isotype | Antibody 35 (antibody, V domains shown, Purified as IgG; compared with an IgG1 isotype control and detected with anti-human IgG Fc; also called antibody clone number 35; clone 35) VH: QVQLVQSGAEVKKPGSSVKVSCKASGGTFSSAAISWVRQAPGQGLEWMGNIIPIVGIANYAQKFQGRVTITADESTSTAYMELSSLRSEDTAVYYCARDTGRGYTRHFWFDPWGQGTLVTVSS VL: DIQMTQSPSSLSASVGDRVTITCRASQSISSYLNWYQQKPGKAPKLLIYAASSLQSGVPSRFSGSGSGTDFTLTISSLQPEDFATYYCQQSDILYTFGGGTKVEIK
3 | 85.7 | 37.3 fold increase over isotype | 79.4 fold increase over isotype | 0.412 | 4.5 fold increase over isotype | Antibody 58 (antibody, V domains shown, Purified as IgG; compared with an IgG1 isotype control and detected with anti-human IgG Fc; also called antibody clone number 58; clone 58) VH: EVQLVESGGGLVQPGRSLRLSCTASGFTFGDYAMSWFRQAPGKGLEWVGFIGSKFYGGETEYTASVKGRFTISRDGSKSIAYLQMNSLKTEDTAVYYCARGPRRYTYGMDVWGQGTTVTVSS VL: DIQMTQSPSSLSASVGDRVTITCRASQSISSYLNWYQQKPGKAPKLLIYAASSLQSGVPSRFSGSGSGTDFTLTISSLQPEDFATYYCQQSSTPLTFGGGTKVEIK
4 | 20.3 | 33.8 fold increase over isotype | 72.2 fold increase over isotype | 0.0242 | 3.8 fold increase over isotype | Antibody 34 (antibody, V domains shown, Purified as IgG; compared with an IgG1 isotype control and detected with anti-human IgG Fc; also called antibody clone number 34; clone 34) VH: QVQLVQSGAEVKKPGSSVKVSCKASGGTFSSAAISWVRQAPGQGLEWMGGIFPISGHANYAQKFQGRVTITADESTSTAYMELSSLRSEDTAVYYCARDTGRGYTRHFWFDPWGQGTLVTVSS VL: DIQMTQSPSSLSASVGDRVTITCRASQSISSYLNWYQQKPGKAPKLLIYAASSLQSGVPSRFSGSGSGTDFTLTISSLQPEDFATYYCQQSDILYTFGGGTKVEIK

Further lines, the binder ahead of its results:

Row | Binder | mouse CD112/CD112R blocking ELISA max inhibition (%) [1] [%] | gMFI (fold increase over isotype) [2] | gMFI (fold increase over isotype) [3] | EC50 [4] [µg/mL] | gMFI (fold increase over isotype) [5]
5 | Antibody 46 (antibody, V domains shown, in the mouse tumor studies it was used as mouse IgG2a; also called antibody clone number 46; clone 46) VH: EVQLVESGGGLVQPGRSLRLSCTASGFTFGDYAMSWFRQAPGKGLEWVGFIGSKAYGGTTEYTASVKGRFTISRDGSKSIAYLQMNSLKTEDTAVYYCARGPRRYTYGMDVWGQGTTVTVSS VL: DIQMTQSPSSLSASVGDRVTITCRASQSISSYLNWYQQKPGKAPKLLIYAASSLQSGVPSRFSGSGSGTDFTLTISSLQPEDFATYYCQQSSTPLTFGGGTKVEIK | 88 | 23.8 fold increase over isotype | 74.8 fold increase over isotype | 0.181 | 4.2 fold increase over isotype
6 | Antibody 32 (antibody, V domains shown, Purified as IgG; compared with an IgG1 isotype control and detected with anti-human IgG Fc; also called antibody clone number 32; parent clone 32) VH: QVQLVQSGAEVKKPGSSVKVSCKASGGTFSSYAISWVRQAPGQGLEWMGGIIPISGTANYAQKFQGRVTITADESTSTAYMELSSLRSEDTAVYYCARDTGRGYTRHFWFDPWGQGTLVTVSS VL: DIQMTQSPSSLSASVGDRVTITCRASQSISSYLNWYQQKPGKAPKLLIYAASSLQSGVPSRFSGSGSGTDFTLTISSLQPEDFATYYCQQSDILYTFGGGTKVEIK | 0 | 27.9 fold increase over isotype | 14.9 fold increase over isotype | 0.27 | 2.5 fold increase over isotype
7 | Antibody 33 (antibody, V domains shown, Purified as IgG; compared with an IgG1 isotype control and detected with anti-human IgG Fc; also called antibody clone number 33; clone 33) VH: QVQLVQSGAEVKKPGSSVKVSCKASGGTFGNYAISWVRQAPGQGLEWMGGIIPIPGIANYAQKFQGRVTITADESTSTAYMELSSLRSEDTAVYYCARDTGRGYTRHFWFDPWGQGTLVTVSS VL: DIQMTQSPSSLSASVGDRVTITCRASQSISSYLNWYQQKPGKAPKLLIYAASSLQSGVPSRFSGSGSGTDFTLTISSLQPEDFATYYCQQSDILYTFGGGTKVEIK | 28.3 | 34.2 fold increase over isotype | 73.3 fold increase over isotype | 0.0383 | 3.4 fold increase over isotype
